Source: patent US5070188A, “Acylated epidermal growth factor” (Ethicon, Inc., priority 1989, dated 1991)
“And” between values parts separate entries of the source, which are not always exact repeats. Equal values may be shown once.

Experiments:
[1] = target: T1, trypsin (Bos taurus, UniProt P00760); assay: in vitro susceptibility to proteolytic degradation (tryptic digestion, HPLC); format: in vitro ADME
T1 construct: purchased Worthington Biochem Corp
T1 sequence (P00760 24-246): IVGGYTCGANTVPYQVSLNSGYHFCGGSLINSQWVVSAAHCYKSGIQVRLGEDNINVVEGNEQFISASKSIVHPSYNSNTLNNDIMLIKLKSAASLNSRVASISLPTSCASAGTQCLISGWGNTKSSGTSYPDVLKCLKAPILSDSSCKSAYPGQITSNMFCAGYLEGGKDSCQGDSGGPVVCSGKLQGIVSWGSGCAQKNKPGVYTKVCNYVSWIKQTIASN

[2] = shelf stability, activity followed with the Receptor Binding Assay; format: physicochemical; conditions: for activity retained (RBA), 2 months/37° C.: stored 2 months at 37° C.; for activity retained (RBA), 2 months/4° C.: stored 2 months at 4° C.
Excerpt: Samples are further analyzed by testing the biological activity in the Receptor Binding Assay (RBA) system and/or in a mitogenic assay system according to the standard procedure. Under these conditions, the extent of activity of modified EGF was compared with that of the unmodified EGF on a weight per weight basis. A similar test is used to follow the stability of EGF products. The RBA is described in Savage et al., Analytical Biochem, 111, pages 195 et seq. (1981) and in U.S. Pat. No. 4,717,717. For RBA studies, a cell line with a high density of receptors for EGF is grown to confluency in microwell plates. After removing the growth media and slightly fixing the cells, the binding of modified EGF to the cell surface in the presence of competing iodinated-EGF is compared with the binding of non-radioactive, unmodified EGF under the same conditions. The concentration of modified EGF is extrapolated from the standard curve made for unmodified EGF. Acylated EGF with acyl side chains ranging from C2 to C8 retained biological activity according to the RBA.
The shelf stability of EGF and acylated EGF derivatives with different degrees of modification and acyl side chains was studied using the Receptor Binding Assay (RBA) system. […]

[3] = test system: EGF sensitive cell line; assay: mitogenic assay, tritium labelled thymidine incorporation; format: cell-based; conditions: compared with C2 acylated EGF
Protocol: For mitogenic assay systems, an EGF sensitive cell line is grown to confluency at the bottom of microwell plates. After replacing the regular growth media with growth factor poor media, modified EGF is added with tritium labelled thymidine. The extent of incorporation of the tritium labelled thymidine in the presence and absence of growth factors is then weighed. The effects of modified EGF are compared with those of unmodified EGF under the same system.

Substance: C2 -EGF: human EGF triacylated with acetyl groups
- remaining fraction that resisted proteolysis ([1]; mixture C2-EGF:native EGF 1.5 to 1, TPCK-trypsin, up to 4 hours incubation): 75-80%
- fraction that resisted proteolytic cleavage at Arg 41 and Arg 45 ([1]; trypsin, over 4 hours incubation at 30° C.): over 75%
- tryptic fragments generated (HPLC, cation exchanger column) ([1]; tryptic digestion, substance alone): did not generate any fragment
- activity retained (RBA), 2 months/37° C. [2]: 87.37% and 88%
- improvement of retained activity over control unmodified native EGF ([2]; stored at 37° C., 2 months): 30%
- activity retained (RBA), stored time 0 [2]: 100%

Substance: C6 -EGF: acylated human EGF with C6 acyl side chain
- activity retained (RBA), 2 months/4° C. [2]: 61.88%
- activity retained (RBA), 2 months/37° C. [2]: 66.94%
- activity retained (RBA), stored time 0 [2]: 100%

Substance: C8 -EGF: acylated human EGF with C8 acyl side chain
- activity retained (RBA), 2 months/4° C. [2]: 83.19%
- activity retained (RBA), 2 months/37° C. [2]: 69.04%
- activity retained (RBA), stored time 0 [2]: 100%

Substance: C12: acylated EGF having an acyl side chain of C12
- reactivity in the mitogenic assay [3]: nearly as reactive as C2

Substance: Control EGF: Recombinantly produced human EGF (Chiron Corporation), unmodified 53 amino acid polypeptide, used as control [reference compound]
- fraction digested ([1]; mixture C2-EGF:native EGF 1.5 to 1, TPCK-trypsin, within about 20 minutes): over 85%
- cleavage by trypsin ([1]; within 5 minutes post-incubation, 30° C.): over 65%
- remaining molecules cleaved by trypsin ([1]; within 2 hours post-incubation): 35%
- activity retained (RBA), 2 months/4° C. [2]: 81.09% and 81%
- activity retained (RBA), 2 months/37° C. [2]: 57.52% and 58%
- activity retained (RBA), stored time 0 [2]: 100%
